# Test results as given in US20250145697A1 (WASHINGTON UNIVERSITY, published 2025).
# Where a chain is given by its changes, count along the chain named.
# T1: ApoE4 amino acids 54-164, expressed on yeast (human, UniProt P02649 72-182)
# T1 construct: with myc tag, on yeast cells; expression in yeast printed as Low; range counts on the mature protein; also called helix2 + 3 + 4
# T1 chain: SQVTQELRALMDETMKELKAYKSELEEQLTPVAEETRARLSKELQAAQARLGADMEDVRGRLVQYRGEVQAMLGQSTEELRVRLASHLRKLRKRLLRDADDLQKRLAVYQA
# T2: ApoE4 amino acids 24-164, expressed on yeast (human, UniProt P02649 42-182)
# T2 construct: with myc tag, on yeast cells; range counts on the mature protein; also called helix1 + 2 + 3 + 4
# T2 chain: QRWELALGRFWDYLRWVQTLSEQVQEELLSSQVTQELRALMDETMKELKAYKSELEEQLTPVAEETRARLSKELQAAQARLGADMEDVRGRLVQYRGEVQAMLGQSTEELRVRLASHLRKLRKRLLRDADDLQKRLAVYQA
# T3: ApoE4 amino acids 1-210, expressed on yeast (human, UniProt P02649 19-228)
# T3 construct: with myc tag, on yeast cells; range counts on the mature protein; also called N terminal domain; not shown: myc tag and yeast surface-display partner
# T3 chain: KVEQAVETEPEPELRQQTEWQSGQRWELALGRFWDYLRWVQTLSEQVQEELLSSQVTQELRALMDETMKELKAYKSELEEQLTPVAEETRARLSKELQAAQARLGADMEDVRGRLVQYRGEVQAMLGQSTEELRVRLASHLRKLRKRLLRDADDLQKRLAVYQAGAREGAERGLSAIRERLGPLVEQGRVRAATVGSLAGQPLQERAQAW
# T4: ApoE4 amino acids 1-164, expressed on yeast (human, UniProt P02649 19-182)
# T4 construct: with myc tag, on yeast cells; range counts on the mature protein; also called up to helix 4; not shown: myc tag and yeast surface-display partner
# T4 chain: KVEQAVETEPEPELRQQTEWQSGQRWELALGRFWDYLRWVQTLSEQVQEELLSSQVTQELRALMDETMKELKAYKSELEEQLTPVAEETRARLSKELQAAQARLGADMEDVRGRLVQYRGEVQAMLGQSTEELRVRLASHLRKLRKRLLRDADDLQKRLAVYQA
# B1: HJ159 (antibody, V domains shown)
# VH: QVQLQQSGPDLVKPGASVKISCKASGYTFIDYYINWAKQRPGQGLEWIGWIFPGSGSTYYNEKFKGKATLTVDKSSSTAYMFLSSLTSEDSAVFFCARYYGSSPFAYWGQGTLVTVSA
# VL: DVLMTQTPLSLPVSLGDQASISCRSSQNIVYSNGNTYLEWYLQKPGQSPKLLIYKVSNRFSGVPDRFSGSGSGTYFTLKISRVEAEDLGIYYCFQGSHVPYTFGGGTKLEIKR
# notes: murine monoclonal antibody from hybridoma
# B2: HJ1513 (antibody, V domains shown)
# VH: QIQLQQSGPELVKPGASVKISCKASGYTFTDYYINWVRQRPGQGLEWIGWIYPESFNTYYNEKFKGKATLTVDTSSNTAYMQLSSLTSEDSAVYFCARYYVSSPFAYWGQGTLVTVSA
# VL: B1 VL with V30I, Y31H, Y41F, Y75D, I90V
# notes: as for B1
# B3: HJ1514 (antibody, V domains shown)
# VH: EVNLEESGGGLVQPGGSMKLSCAASGFTFSDAWMDWVRQSPEKGLEWVAEIRNKADNHATYYAESVKGRFTISRNDSKSSVYLQMNSLRTEDTGIYYCVLWDYWGQGTTLTVSS
# VL: DIVMSQSPSSLAVSAGEKVTMTCKSSQSLLNSRTRKNFLTWYRQKPGQSPKPLIYWASSRESGVPDRFAGSGSGTDFTLTISSVQAEDLAVYYCKQSYNLPWTFGGGTKLEIKR
# notes: as for B1
# B4: HJ1518 (antibody, V domains shown)
# VH: B1 VH with D10E, I30S, A37V, T58S, S77R, F82L, F94Y, A118T
# VL: B1 VL with T7S, N28S, Y31H, S32R, Y75D, I90V, K112R
# notes: as for B1
# B5: HJ158 (antibody, V domains shown)
# VH: EVQLMESGGDLVKPGGSLELSCTVSGFTFNNYAMSWIRQTPEKRLEWVATISDGGTNTYFPDNVKGRFTISRDNAKSNLYLQMSHLQSEDTAMYYCAREGRGTWFAYWGQGTLVTVSA
# VL: DVVMTQTPLSLPVSLGDQASISCRSSQSLVHINGNTYLHWSLQKPGQSPKLLIYKVSNRFSGVPDRFSGSGSGTDFTLKISRVEAEDLGIYFCSQNTHLPLTFGAGTKLELKR
# notes: as for B1
# B6: HJ1531 (antibody, V domains shown)
# VH: EVQFVESGGGLVQPKGSLKLSCAASGFSFNIYAMNWVRQAPGKGLEWVARIRSKSNDYATFYADSVKDRFTISRDDSESMLYLQMNNLKIEDTAMYYCVSPYDGALAYWGQGTSVTVSS
# VL: DIQMNQSPSSLFASLGDTITITCHASQNINVWLSWYQQKPGNIPKLLIYKASNLHTGVSSRFSGSGSGTDFTLTINNLQPEDIATYYCQQGQSYPLTFGAGTKLELKR
# notes: as for B1
# B7: HJ1536 (antibody, V domains shown)
# VH: EVQFVESGGGLVQPKGSLKLSCEVSGFSFNTYAMNWVRQAPGKGLEWVARIRNKTNNYATFYADSVKDRFTISRDDSKNTLYLQMNNLKAEDTAMYFCASPYDGSFAYWGQGTLVTVSA
# VL: B6 VL with F12S, V31I, S59P, D70G, N76S, N77S, Q92H, A100G, L106I
# notes: as for B1
# Key:
# [1] = biological target: T5, recombinant alipidated human ApoE4 (human, UniProt P02649 19-317); assay: SPR (Biacore T200), biotinylated ApoE4 captured on anti-biotin mAb chip, antibody injected, 1:1 fit
# T5 construct: mature; full length recombinant protein made in E. coli or bought; biotinylated for SPR; position 112 is counted on the mature protein, not on the precursor entry; also called recApoE; non-lipidated ApoE4
# Description: The affinity of several anti-ApoE antibodies for ApoE4 was determined by surface plasmon resonance using a BIAcore T200. Anti-biotin monoclonal mouse antibody was immobilized on a Biacore Series S CM5 sensor chip. Biotinylated recombinant alipidated ApoE4 was then captured on to the chip. Serial dilutions of each antibody were injected at a flow rate of 30 μl/min. Each sample was analyzed, for example, with 3-minute association and 10-minute dissociation. After each injection the chip was regenerated using 3 M MgCl₂ or another appropriate buffer. Binding response was corrected by subtracting the response units (RUs) from a flow cell capturing an irrelevant IgG at similar density. A 1:1 Languir model of simultaneous fitting of Kₒₙ and Koff was used for kinetics analysis. Recombinant alipidated ApoE4 was either expressed in soluble form in E. coli and then purified, or purchased from a commercial supplier.
# [2] = biological target: T1, ApoE4 amino acids 54-164, expressed on …; assay: yeast display of myc-tagged ApoE4 fragment, antibody staining
# Description: (§1) Epitope binding of various anti-ApoE antibodies was evaluated multiple ways. Different sequences of human ApoE were expressed on the surface of yeast by yeast display using different plasmids. Different anti-ApoE antibodies were then assessed to determine binding to the different ApoE sequences by immunofluorescence of the yeast cell surface (Table 4). Because none of the anti-ApoE antibodies tested here recognize murine ApoE, the epitope was further narrowed down by comparison of the murine and human ApoE sequences as shown in Tables 4 and 5. DNA constructs containing different regions of ApoE4 with myc tag were transformed into yeast cells. Yeast cells were incubated with HJ15x to detect binding or anti-myc antibody to detect expression.
# [3] = biological target: T2, ApoE4 amino acids 24-164, expressed on …; assay: as above
# Description: as §1
# [4] = biological target: T3, ApoE4 amino acids 1-210, expressed on …; assay: as above
# Description: as §1
# [5] = biological target: T4, ApoE4 amino acids 1-164, expressed on …; assay: as above
# Description: as §1
# [6] = biological target: T5, recombinant alipidated human ApoE4; assay: direct ELISA on coated recombinant alipidated ApoE (0.5 ug/ml)
# Description: (§2) ELISA dose response curves were generated for several anti-ApoE antibodies. Briefly, plates were coated overnight with full length recombinant alipidated ApoE2, ApoE3, or ApoE4 (0.5 μg/ml). The following days, plates were washed, blocked and then incubated with an anti-ApoE antibody. A goat, anti-mouse IgG-HRP antibody was used for secondary detection. Recombinant alipidated ApoE was either expressed solubly in E. coli and then purified, or purchased from a commercial supplier.
# Target sequence in this assay (P02649 19-317 C130R): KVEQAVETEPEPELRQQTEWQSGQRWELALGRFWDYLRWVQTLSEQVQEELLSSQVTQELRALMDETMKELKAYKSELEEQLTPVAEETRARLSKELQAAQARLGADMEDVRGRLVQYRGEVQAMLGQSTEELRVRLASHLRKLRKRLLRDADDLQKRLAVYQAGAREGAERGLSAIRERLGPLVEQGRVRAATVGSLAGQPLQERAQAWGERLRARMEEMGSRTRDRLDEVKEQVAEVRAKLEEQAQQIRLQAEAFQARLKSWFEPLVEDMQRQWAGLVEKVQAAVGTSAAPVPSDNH
# [7] = biological target: T6, recombinant alipidated human ApoE3 (human, UniProt P02649 19-317); assay: as above
# T6 construct: mature; full length recombinant protein made in E. coli or bought
# Description: as §2
# [8] = biological target: T7, recombinant alipidated human ApoE2 (human, UniProt P02649 19-317); assay: as above
# T7 construct: mature; full length recombinant protein made in E. coli or bought
# Description: as §2
# T6 sequence (P02649 19-317): as the sequence (P02649 19-317 C130R) above, with R112C counted along it
Binder,Kd [1],koff [1],kon [1],binding result [2],binding result [3],binding result [4],binding result [5],EC50 [6],EC50 [7],EC50 [8]
B1,391 nM,0.0074 s⁻¹,18900 M⁻¹ s⁻¹,binds,binds,binds,binds,0.32 nM,1.9 nM,
B2,135 nM,0.000858 s⁻¹,6360 M⁻¹ s⁻¹,binds,binds,binds,binds,0.46 nM,1.26 nM,~100 nM
B3,< 0.781 nM,< 1e-05 s⁻¹,12800 M⁻¹ s⁻¹,binds,binds,binds,binds,0.04 nM,0.23 nM,~100 nM
B4,206 nM,0.00946 s⁻¹,45900 M⁻¹ s⁻¹,binds,binds,binds,binds,0.06 nM,0.258 nM,
B5,,,,,,,,0.06 nM,0.09 nM,0.07 nM
B6,,,,,,,,0.04 nM,0.05 nM,0.05 nM
B7,,,,,,,,0.05 nM,0.1 nM,0.09 nM
